From patent publication EP3727588B1 (UNIVERSITA' DEGLI STUDI DI MILANO, dated 2019)

B1: PEP3 (peptide)
peptide: YGRKKRRQRRRGGSGQPPRQRPRG
B2: inPEP3 (peptide)
peptide: YGRKKRRQRRRGGSGQPPEQEPRG
B3: inPEP2 (peptide)
peptide: YGRKKRRQRRRGGSGLPPEQEPRL
B4: PEP2 (peptide)
peptide: YGRKKRRQRRRGGSGLPPRQRPRL

What was measured:
[1] = target: AP2 clathrin adaptor complex (in COS7 cells); experiment: cell-based or functional assay
[2] = target: T1, α-adaptin subunit of AP2 (rat) (rat, UniProt P58197); experiment: co-IP with anti-ADAM10; rat primary hippocampal neurons, 1 µM, 30 min; competitor ADAM10 (Fig. 1D)
T1 construct: Detected by Western blot as a read-out of the whole AP2 complex

[3] = target: T1, α-adaptin subunit of AP2 (rat); experiment: co-IP with anti-ADAM10, α-adaptin blot; rat acute hippocampal slices, 10 µM, 30 min; competitor ADAM10 (Fig. 1B)

T1 sequence (P58197 whole entry): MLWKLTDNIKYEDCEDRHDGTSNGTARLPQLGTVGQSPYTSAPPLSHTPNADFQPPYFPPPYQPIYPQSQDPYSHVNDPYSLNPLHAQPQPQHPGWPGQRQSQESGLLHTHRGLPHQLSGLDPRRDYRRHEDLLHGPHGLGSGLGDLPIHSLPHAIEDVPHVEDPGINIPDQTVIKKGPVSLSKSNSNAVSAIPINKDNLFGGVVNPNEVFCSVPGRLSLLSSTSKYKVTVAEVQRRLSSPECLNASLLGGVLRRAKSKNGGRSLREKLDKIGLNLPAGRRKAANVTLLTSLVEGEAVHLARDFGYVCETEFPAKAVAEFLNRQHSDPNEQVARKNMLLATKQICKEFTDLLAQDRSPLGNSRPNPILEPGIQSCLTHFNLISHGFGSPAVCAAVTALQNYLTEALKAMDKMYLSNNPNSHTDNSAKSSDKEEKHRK

Binder	internalization index of TacADAM10-RAR (fluorescence-based antibody uptake, COS7 cells, 1 µM, 30 min) [1]	PEP/inPEP ratio of α-adaptin co-immunoprecipitated with ADAM10 (OD) [2]	PEP/inPEP ratio of α-adaptin co-immunoprecipitated with ADAM10 (OD) [3]
B1	-12.8%	10.8%	37.4%
B2	1.3%		
B3	-1.84%		
B4	-10.9%	33.9%	41.6%
